Measurements as given in patent US20250064890A1, “PROTEIN COMPOSITIONS FOR THE TREATMENT OF INFLAMMATORY DISEASES” (Unichem Laboratories Limited, priority 2021, published 2025).

Experiments:
Interleukin-1β = Interleukin-1β in jugular mucosa (ELISA), 5-FU induced OM in hamsters; type: in vivo, golden Syrian hamsters; details: for IL-1β levels, % Decrease vs G2: G2 = OM + Vehicle
Protocol: To induce OM, animals were administered (except normal control) 5-Fluorouracil (5-FU) by intraperitoneal route at doses of 60 mg/kg & 40 mg/kg respectively on first two days. On Day 4, under anesthesia, with aim of enhancing OM, mechanical irritation of the oral mucosa were done using wire brush. Treatment was initiated from Day 4 to Day 12. For group 3 animals 100 μl of vehicle comprising of standard drug Dexamethasone at 0.1 mg was instilled in buccal cheek pouch. For group 4, 5 and 6 animals 100 μl of vehicle comprising of SEQ ID NO. 2 at 0.25 mg, 0.5 mg & 1 mg, respectively was instilled in buccal cheek pouch. At the end of treatment period, cheek pouch of the hamsters was exposed, Mucositis scoring was carried out and images were captured. The animals were then humanely sacrificed, cheek pouch/jugular mucosa were isolated and used for biomarker estimation and histopathological investigation by using ELISA method and Hematoxylin and Eosin (H&E) staining, respectively.
Further, for biomarker estimation jugular mucosa was dissected out, tissue weighed and stored in ice cold 1×PBS. 100 mg of tissue was taken and in 1 ml of 1×PBS buffer. Supernatant of homogenate was used for analysis of TNF-α and Interleukin-1β using ELISA method as per manufacturers instruction. The levels of TNF-α and Interleukin-1β are given in Table 13, FIG. 2 and Table 14, FIG. 3, respectively.

NF-kB = assay: Multiplex analysis, chemotherapy (5-FU), TR146 cell lysates; type: cell-based, human
Protocol: (§1) Oral buccal mucosal cells (TR146) cells were incubated overnight at 37° C. in 5% CO2 incubator. […] The cells were then stimulated with 5-FU (10 mM) for another 24h for chemotherapy and with gamma radiation (3.5 kGy) using Cobalt 60 for radiotherapy. After 24 h, cell culture supernatants were collected from each well and stored at −20° C. till multiplex analysis. For NF-kB estimations, cell lysates were prepared. Levels of biomarkers were estimated using Magpix® multiplex machine. The cells treated with Amifostine (along with 5-FU or radiation) were considered as positive control (PC). Untreated cells (5-FU or radiation alone treated) were used as negative control (NC).
(§2) The percent modulation in each sample was determined as follows:
(§3) [{Concentration of biomarkers (pg/ml) in Control cells (5-FU or radiation alone treated)−Concentration of biomarkers (pg/ml) in SEQ ID NO: 2+5-FU or radiation treated cells)}/Concentration of biomarkers (pg/ml) in Control cells (5-FU or radiation alone treated)]*100

MMP-8 = assay: Multiplex analysis, radiotherapy, TR146; type: cell-based, human
Protocol: as §1, §2, §3

VEGF = assay: Multiplex analysis, radiotherapy, TR146; type: cell-based, human
Protocol: as §1, §2, §3

RAGE = assay: Multiplex analysis, radiotherapy, TR146; type: cell-based, human
Protocol: as §1, §2, §3

IL-1β = assay: Multiplex analysis, radiotherapy, TR146; type: cell-based, human
Protocol: as §1, §2, §3

CCL-2 = assay: Multiplex analysis, radiotherapy, TR146; type: cell-based, human
Protocol: as §1, §2, §3

MMP-3 = assay: Multiplex analysis, radiotherapy, TR146; type: cell-based, human
Protocol: as §1, §2, §3

TNF-α = assay: Multiplex analysis, radiotherapy, TR146; type: cell-based, human
Protocol: as §1, §2, §3

IL-6 = assay: Multiplex analysis, radiotherapy, TR146; type: cell-based, human
Protocol: as §1, §2, §3

[1] = 0.01 μg/ml + Radiation (3.5 kGy)
[2] = 0.1 μg/ml + Radiation (3.5 kGy)

B1: SEQ ID NO 2: recombinant lectin, variant of the S. rolfsii lectin amino acid sequence (reported as Rec-2 in WO 2010/095143) (protein)
chain: TYKITVRVYQTNPDAFFHPVEKTVWKYANGGTWTITDDQHVLTMGGSGTSGTLRFHADNGESFTATFGVHNYKRWCDIVTNLAADETGMVINQQYYSQKNREEARERQLSNYQVKNAKGRNFQIVYTEAEGNDLHANLIIG
IL-1β levels, Mean (Interleukin-1β; G4, 0.25 mg/Animal): 79.10 | IL-1β levels, % Decrease vs G2 (Interleukin-1β; G4, 0.25 mg/Animal): 54.45% | IL-1β levels, Mean (Interleukin-1β; G5, 0.5 mg/Animal): 105.66 | IL-1β levels, % Decrease vs G2 (Interleukin-1β; G5, 0.5 mg/Animal): 39.16% | IL-1β levels, Mean (Interleukin-1β; G6, 1 mg/Animal): 101.96 | IL-1β levels, % Decrease vs G2 (Interleukin-1β; G6, 1 mg/Animal): 41.29% | levels of IL-1β as compared to the untreated subjects (Interleukin-1β; hamsters suffering from OM, in words): reduction | Percentage Inhibition NF-kB (NF-kB; 0.1 μg/ml + 5-FU (10 mM)): 88.6% | Percentage Inhibition NF-kB (NF-kB; 10 μg/ml + 5-FU (10 mM)): 98.4% | Percentage Inhibition NF-kB (NF-kB; 25 μg/ml + 5-FU (10 mM)): 59.7% | Percentage Inhibition NF-kB (NF-kB; 50 μg/ml + 5-FU (10 mM)): 53% | Percentage Inhibition NF-kB (NF-kB; 100 μg/ml + 5-FU (10 mM)): 84.3% | Percentage Inhibition MMP-8 (MMP-8; [1]): 1.8% | Percentage Inhibition MMP-8 (MMP-8; [2]): 13.9% | Percentage Inhibition MMP-8 (MMP-8; 1 μg/ml + Radiation (3.5 kGy)): 11% | Percentage Inhibition MMP-8 (MMP-8; 10 μg/ml + Radiation (3.5 kGy)): 8.5% | Percentage Inhibition MMP-8 (MMP-8; 25 μg/ml + Radiation (3.5 kGy)): 7.6% | MMP-8 against radiation induced levels (MMP-8; radiation, in words): downregulation | Percentage Inhibition VGEF (VEGF; [1]): 0.9% | Percentage Inhibition VGEF (VEGF; [2]): −8.1% | Percentage Inhibition VGEF (VEGF; 1 μg/ml + Radiation (3.5 kGy)): 8.4% | Percentage Inhibition VGEF (VEGF; 10 μg/ml + Radiation (3.5 kGy)): 23.3% | Percentage Inhibition VGEF (VEGF; 25 μg/ml + Radiation (3.5 kGy)): 29.7% | VEGF against radiation induced levels (VEGF; radiation, in words): downregulation | Percentage Inhibition RAGE (RAGE; [1]): 38.8% | Percentage Inhibition RAGE (RAGE; [2]): 42.6% | Percentage Inhibition RAGE (RAGE; 1 μg/ml + Radiation (3.5 kGy)): 47.6% | Percentage Inhibition RAGE (RAGE; 10 μg/ml + Radiation (3.5 kGy)): 53.5% | Percentage Inhibition RAGE (RAGE; 25 μg/ml + Radiation (3.5 kGy)): 39.1% | RAGE against radiation induced levels (RAGE; radiation, in words): downregulation | Percentage Inhibition IL-1β (IL-1β; [1]): −17.3% | Percentage Inhibition IL-1β (IL-1β; [2]): −15.1% | Percentage Inhibition IL-1β (IL-1β; 1 μg/ml + Radiation (3.5 kGy)): −11.5% | Percentage Inhibition IL-1β (IL-1β; 10 μg/ml + Radiation (3.5 kGy)): −44.8% | Percentage Inhibition IL-1β (IL-1β; 25 μg/ml + Radiation (3.5 kGy)): −97.1% | Percentage Inhibition CCL-2 (CCL-2; [1]): 0.1% | Percentage Inhibition CCL-2 (CCL-2; [2]): 23.1% | Percentage Inhibition CCL-2 (CCL-2; 1 μg/ml + Radiation (3.5 kGy)): 23.1% | Percentage Inhibition CCL-2 (CCL-2; 10 μg/ml + Radiation (3.5 kGy)): 23.1% | Percentage Inhibition CCL-2 (CCL-2; 25 μg/ml + Radiation (3.5 kGy)): 0% | CCL-2 against radiation induced levels (CCL-2; radiation, in words): downregulation | Percentage Inhibition MMP-3 (MMP-3; [1]): 42.8% | Percentage Inhibition MMP-3 (MMP-3; [2]): 51.9% | Percentage Inhibition MMP-3 (MMP-3; 1 μg/ml + Radiation (3.5 kGy)): 47.4% | Percentage Inhibition MMP-3 (MMP-3; 10 μg/ml + Radiation (3.5 kGy)): 47.4% | Percentage Inhibition MMP-3 (MMP-3; 25 μg/ml + Radiation (3.5 kGy)): 28.8% | MMP-3 against radiation induced levels (MMP-3; radiation, in words): downregulation | Percentage Inhibition TNF-α (TNF-α; [1]): 43.2% | Percentage Inhibition TNF-α (TNF-α; [2]): 45.2% | Percentage Inhibition TNF-α (TNF-α; 1 μg/ml + Radiation (3.5 kGy)): 39.6% | Percentage Inhibition TNF-α (TNF-α; 10 μg/ml + Radiation (3.5 kGy)): 47.1% | Percentage Inhibition TNF-α (TNF-α; 25 μg/ml + Radiation (3.5 kGy)): 41% | TNF-α against radiation induced levels (TNF-α; radiation, in words): downregulation | Percentage Inhibition IL-6 (IL-6; [1]): −0.2% | Percentage Inhibition IL-6 (IL-6; [2]): 3.1% | Percentage Inhibition IL-6 (IL-6; 1 μg/ml + Radiation (3.5 kGy)): 3.8% | Percentage Inhibition IL-6 (IL-6; 10 μg/ml + Radiation (3.5 kGy)): 7.7% | Percentage Inhibition IL-6 (IL-6; 25 μg/ml + Radiation (3.5 kGy)): 5.2%
